Legend:
[1] = molecular target: T1, human BCMA amino acid residues 1-54 (linear and conformational peptide libraries) (human, UniProt Q02223 1-54); assay: CLIPS peptide array, ELISA
T1 construct: Presented as CLIPS peptide arrays (linear peptides and structural mimetics) on a solid support
T1 sequence: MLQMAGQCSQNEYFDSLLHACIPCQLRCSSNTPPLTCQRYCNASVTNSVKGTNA
Method: (§1) Mapping was carried out using anti-BCMA scFv clones, such as those fused with mouse Fc (scFv-mFc).
(§2) Linear and conformational peptide libraries of amino acid residues 1-54 of human BCMA (set forth as amino acid residues 1-54 of SEQ ID NO:367) were generated based on a combinatorial matrix design. Linear peptides and structural mimetics including single loop, a-helix, 3-turn, combinatorial and linear disulfide bridge mimics, and discontinuous epitope mimics were used, along with positive and negative control peptides, on an amino-functionalized solid support.
(§3) Affinities for binding to the peptides in the epitope library were determined using ELISA. The peptide arrays were incubated with a solution containing the scFv overnight at 4° C. Affinity information was used in iterative screens to define the sequence and conformation of epitopes. Heat maps of affinity information for two or more loops were generated.

[2] = molecular target: T2, recombinant human BCMA-hFc (human, UniProt Q02223 1-54, biotinylated in the kinetic exclusion assay of paragraph 546); assay: KinExA kinetic exclusion assay, CAR-expressing Jurkat cells titrated into 20 nM or 1 nM biotinylated rhBCMA hFc
T2 construct: also called rhBCMA hFc; recombinant human BCMA fusion protein
T2 sequence: T1 sequence

[3] = molecular target: T3, BCMA-Fc (soluble human BCMA fused at its C-terminus to an Fc region of IgG) (human, UniProt Q02223 1-54); assay: flow cytometry, T cells transduced with O/SSE construct, CD4 gate, recombinant BCMA-Fc (rBCMA) staining against surrogate marker
T3 construct: also called hBCMA-Fc; hBMCA-Fc
T3 sequence: T1 sequence
Method: (§4) Lentiviral constructs containing anti-BCMA CAR-encoding polynucleotides with starting and optimized sequences, respectively, as described in Example 3, were transduced into T cells and transduced cells were analyzed for transduction (based on expression of a surrogate marker) and for CAR expression based on binding to recombinant BCMA-Fc fusion protein by flow cytometry.

[4] = molecular target: T3, BCMA-Fc (soluble human BCMA fused at …); assay: flow cytometry, T cells transduced with O/SSE construct, CD8 gate, recombinant BCMA-Fc (rBCMA) staining against surrogate marker
Method: as §4

[5] = molecular target: T3, BCMA-Fc (soluble human BCMA fused at …); assay: flow cytometry, T cells transduced with Non-SSE construct, CD4 gate, recombinant BCMA-Fc (rBCMA) staining against surrogate marker
Method: as §4

[6] = molecular target: T3, BCMA-Fc (soluble human BCMA fused at …); assay: flow cytometry, T cells transduced with Non-SSE construct, CD8 gate, recombinant BCMA-Fc (rBCMA) staining against surrogate marker
Method: as §4

[7] = molecular target: T2, recombinant human BCMA-hFc; assay: kinetics exclusion assay, CAR expressed on a Jurkat T cell line, rhBCMA hFc in solution; CAR on Jurkat cells, kinetics exclusion assay (not the scFv-Fc by Biacore)
Method: A CAR with a BCMA-55-derived scFv binding domain, a modified IgG-derived CH2-CH3-hinge spacer, a CD28 transmembrane domain, and 41BB and CD3zeta endodomain, was expressed in a Jurkat T cell line. Kinetics of binding by the CAR to recombinant human BCMA-hFc (rhBCMA hFc) was assessed using a kinetics exclusion assay. Affinity of binding of an Fc fusion protein containing the scFv portion of the CAR (scFv-Fc) to recombinant human BCMA fusion protein was also assessed using a Biacore-based assay.

[8] = molecular target: T4, human B-cell maturation antigen (BCMA) on cells (human, UniProt Q02223 1-184); assay: flow cytometry on BCMA-expressing HEK293 cells vs control cells, crude lysate or bacterial supernatant; clone listed in Table E2
T4 construct: Recombinant on HEK293 or K562 cells, or endogenous on cell lines (H929, RPMI 8226, OPM2, MM1S, Daudi); also called hBCMA; huBCMA
T4 chain: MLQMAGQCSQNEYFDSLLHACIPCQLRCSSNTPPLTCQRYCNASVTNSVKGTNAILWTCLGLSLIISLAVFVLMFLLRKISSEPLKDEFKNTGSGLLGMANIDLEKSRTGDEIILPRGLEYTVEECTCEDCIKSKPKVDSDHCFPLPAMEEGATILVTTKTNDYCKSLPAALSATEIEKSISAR
Method: Specific binding of resulting scFv clones to BCMA-expressing HEK293 cells, as compared to control cells not expressing BCMA, was assessed by flow cytometry either with in vitro translated crude cell lysate or with bacterially-produced supernatant.

[9] = molecular target: T5, human BCMA peptide 30SNTPPLTCQR39 (human); assay: CLIPS peptide array, ELISA
T5 construct: Could be recognized in a linear form
T5 peptide: SNTPPLTCQR
Method: as §1, §2, §3

[10] = molecular target: T2, recombinant human BCMA-hFc; assay: Biacore-based assay (SPR)
[11] = molecular target: T4, human B-cell maturation antigen (BCMA) …; assay: membrane proteome array on transfected HEK293 cells (Retrogenix)

B1: BCMA-52-scFv-mFc (Fc fusion, not shown: a dimerising Fc or GST)
chain: SYELTQPPSASGTPGQRVTMSCSGTSSNIGSHSVNWYQQLPGTAPKLLIYTNNQRPSGVPDRFSGSKSGTSASLAISGLQSEDEADYYCAAWDGSLNGLVFGGGTKLTVLGSRGGGGSGGGGSGGGGSLEMAEVQLVQSGAEVKKPGESLKISCKGSGYSFTSYWIGWVRQMPGKGLEWMGIIYPGDSDTRYSPSFQGHVTISADKSISTAYLQWSSLKASDTAMYYCARYSGSFDNWGQGTLVTVSS
notes: also called BCMA-52 scFv fused with mouse Fc
B1: binds [1].

B2: BCMA-55-LS CAR (other)
chain: QSALTQPASVSASPGQSIAISCTGTSSDVGWYQQHPGKAPKLMIYEDSKRPSGVSNRFSGSKSGNTASLTISGLQAEDEADYYCSSNTRSSTLVFGGGTKLTVLGSRGGGGSGGGGSGGGGSLEMAEVQLVQSGAEMKKPGASLKLSCKASGYTFIDYYVYWMRQAPGQGLESMGWINPNSGGTNYAQKFQGRVTMTRDTSISTAYMELSRLRSDDTAMYYCARSQRDGYMDYWGQGTLVTVSSESKYGPPCPPCPAPPVAGPSVFLFPPKPKDTLMISRTPEVTCVVVDVSQEDPEVQFNWYVDGVEVHNAKTKPREEQFQSTYRVVSVLTVLHQDWLNGKEYKCKVSNKGLPSSIEKTISKAKGQPREPQVYTLPPSQEEMTKNQVSLTCLVKGFYPSDIAVEWESNGQPENNYKTTPPVLDSDGSFFLYSRLTVDKSRWQEGNVFSCSVMHEALHNHYTQKSLSLSLGKMFWVLVVVGGVLACYSLLVTVAFIIFWVKRGRKKLLYIFKQPFMRPVQTTQEEDGCSCRFPEEEEGGCELRVKFSRSADAPAYQQGQNQLYNELNLGRREEYDVLDKRRGRDPEMGGKPRRKNPQEGLYNELQKDKMAEAYSEIGMKGERRRGKGHDGLYQGLSTATKDTYDALHMQALPPR
notes: Chimeric antigen receptor on T cells or Jurkat cells; also called BCMA-55-LS-O/SSE CAR; BCMA-55-LS CAR O/SSE
For B2, the Kd [2] was ~1.46 nM, the “% of cells in Q1 (rBCMA+ marker-)” value [3] was 1.9% and the “% of cells in Q3 (rBCMA- marker+)” value [3] was 4.89%. The “% of cells in Q4 (rBCMA- marker-)” value [3] was 43%, the “% of cells in Q1 (rBCMA+ marker-)” value [4] was 2.47% and the “% of cells in Q3 (rBCMA- marker+)” value [4] was 6.39%. The “% of cells in Q4 (rBCMA- marker-)” value [4] was 47.8%, the “% of cells in Q1 (rBCMA+ marker-)” value [5] was 8.66% and the “% of cells in Q3 (rBCMA- marker+)” value [5] was 6.35%. The “% of cells in Q4 (rBCMA- marker-)” value [5] was 40.9%, the “% of cells in Q1 (rBCMA+ marker-)” value [6] was 7.95% and the “% of cells in Q3 (rBCMA- marker+)” value [6] was 6.75%. For the same binder, the “% of cells in Q4 (rBCMA- marker-)” value [6] was 48.8% and the Kd [7] was ~1 nM.

B3: BCMA-26 scFv (scFv)
scFv: EVQLVESGGGLVKPGGSLRLSCAASGFTFSDYYMSWIRQAPGKGLEWVSYISSSGSTIYYADSVKGRFTISRDNAKNSLYLQMNSLRAEDTAVYYCAKVDGPPSFDIWGQGTMVTVSSGGGGSGGGGSGGGGSSYVLTQPPSVSVAPGQTARITCGANNIGSKSVHWYQQKPGQAPMLVVYDDDDRPSGIPERFSGSNSGNTATLTISGVEAGDEADYFCHLWDRSRDHYVFGTGTKLTVL
B3: binds [1]; binds [8].

B4: BCMA-9 scFv (scFv)
scFv: EVQLVQSGGGLVKPGGSLRLSCAASGFTFSDYYMSWIRQAPGKGLEWVSYISSSGSTIYYADSVKGRFTISRDNAKNSLYLQMNSLRAEDTAVYYCARVDGDYVDDYWGQGTLVTVSSGGGGSGGGGSGGGGSSYELTQPPSVSVAPGQTARVTCGANNIGSKSVHWYQQKPGQAPMLVVYDDDDRPSGIPERFSGSNSGNTATLTISGVEAGDEADYFCHVWDRSRDHYVFGTGTKLTVL
B4: binds [1]; binds [8].

B5: BCMA-25 scFv (scFv)
scFv: EVQLVQSGGGLVQPGRSLRLSCTASGFTFGDYAMSWFRQAPGKGLEWVGFIRSKAYGGTTEYAASVKGRFTISRDDSKSIAYLQMNSLKTEDTAVYYCAAWSAPTDYWGQGTLVTVSSGGGGSGGGGSGGGGSDIQMTQSPAFLSASVGDRVTVTCRASQGISNYLAWYQQKPGNAPRLLIYSASTLQSGVPSRFRGTGYGTEFSLTIDSLQPEDFATYYCQQSYTSRQTFGPGTRLDIK
B5: binds [9]; binds [8].

B6: BCMA-23 scFv (scFv)
scFv: EVQLVESGGGLVKPGGSLRLSCAASGFTFSDYYMSWIRQAPGKGLEWVSYISSSGSTIYYADSVKGRFTISRDNAKNSLYLQMNSLRAEDTAVYYCAKVDGDYTEDYWGQGTLVTVSSGGGGSGGGGSGGGGSQSALTQPASVSGSPGQSITISCTGSSSDVGKYNLVSWYQQPPGKAPKLIIYDVNKRPSGVSNRFSGSKSGNTATLTISGLQGDDEADYYCSSYGGSRSYVFGTGTKVTVL
B6: binds [9].

B7: BCMA-1 scFv (scFv)
scFv: QVQLVQSGGGLVQPGRSLRLSCTASGFTFGDYAMSWFRQAPGKGLEWVGFIRSKAYGGTTEYAASVKGRFTISRDDSKSIAYLQMNSLKTEDTAVYYCAAWSAPTDYWGQGTLVTVSSGGGGSGGGGSGGGGSDIVMTQSPDSLSVSPGERATISCKSSQSVLSTSNNKNYLAWYQQKPGQPPRLLLYWASTREAGVPDRFSGSGSGTDFTLTISSLQAEDVAVYYCQQYFSSPYTFGHGTKLEIK
B7: binds [9]; binds [8].

B8: BCMA-5 scFv (scFv)
scFv: QVQLVQSGGGLVQPGRSLRLSCTASGFTFGDYAMSWFRQAPGKGLEWVGFIRSKAYGGTTEYAASVKGRFTISRDDSKSIAYLQMNSLKTEDTAVYYCAAWSAPTDYWGQGTLVTVSSGGGGSGGGGSGGGGSDIVMTQSPDSLAVSLGERATINCKSSQSVLYSSNNKNYLAWYQQKPGQPPKLLIYWASTRESGVPDRFSGSGSGTDFTLTISSLQAEDVAVYYCQQYYSTPWTFGQGTKVDIK
B8: binds [9]; binds [8].

B9: BCMA-55 scFv-Fc fusion protein (Fc fusion, not shown: a dimerising Fc or GST)
chain: QSALTQPASVSASPGQSIAISCTGTSSDVGWYQQHPGKAPKLMIYEDSKRPSGVSNRFSGSKSGNTASLTISGLQAEDEADYYCSSNTRSSTLVFGGGTKLTVLGSRGGGGSGGGGSGGGGSLEMAEVQLVQSGAEMKKPGASLKLSCKASGYTFIDYYVYWMRQAPGQGLESMGWINPNSGGTNYAQKFQGRVTMTRDTSISTAYMELSRLRSDDTAMYYCARSQRDGYMDYWGQGTLVTVSS
notes: also called BCMA-55-Fc
With B9 the Kd [10] was ~10 nM and the binding result [11] was “binds”.

— patent US20260109774A1 (JUNO THERAPEUTICS, published 2026)
